Reference: PMC1513511

T1: H6MobC221 (pC221 MobC) (plasmid pC221, UniProt Q6V0Y1 1-132)
T1 sequence: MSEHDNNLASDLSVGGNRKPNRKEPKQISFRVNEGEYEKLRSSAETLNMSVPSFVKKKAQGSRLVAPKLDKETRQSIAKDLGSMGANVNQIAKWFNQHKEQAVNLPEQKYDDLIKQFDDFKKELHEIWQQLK

B1: 21P (mcb2 oligoduplex) (dsDNA)
DNA 1: AACGAAGTGGCTAGAATATA
DNA 2: TATATTCTAGCCACTTCGTT
B2: 21Pmut (randomized mcb2 oligoduplex) (dsDNA)
DNA 1: AACGAGAGTAGGTCAATATA
DNA 2: TATATTGACCTACTCTCGTT

Columns and labels:
H6MobC221 (pC221 MobC) [1] = biological target: T1, H6MobC221 (pC221 MobC); test: SPR
H6MobC221 (pC221 MobC) [2] = biological target: T1, H6MobC221 (pC221 MobC); test: SPR; remark: listed apart in the source

Row | Binder | Kd (H6MobC221 (pC221 MobC) [1]) [nM] | binding result (H6MobC221 (pC221 MobC) [2])
1 | B1 | ~1800 | –
2 | B2 | – | no binding
